This is an account of results in US20210253706A1.

Experiment [1] deals with cynomolgus ICOS (Macaca fascicularis (cynomolgus)). Briefly: Octet (BLI), global 1:1 binding model.
The target in experiment [2] is cynomolgus PD-1 (Macaca fascicularis (cynomolgus)). Briefly: Octet (BLI), global 1:1 binding model. (BLI is a label-free optical method that tracks binding on a fibre tip over time.)
In a further experiment the target is huICOS (UniProt Q9Y6W8). The experiment is described as follows: Octet (BLI), global 1:1 binding model.
Chain of huICOS (Q9Y6W8 21-140 limits assumed): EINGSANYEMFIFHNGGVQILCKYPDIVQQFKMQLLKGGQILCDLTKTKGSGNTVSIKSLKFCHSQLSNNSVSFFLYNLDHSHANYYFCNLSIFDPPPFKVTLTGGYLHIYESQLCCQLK
The target in a further experiment is human PD-1 (human) (UniProt Q15116). Briefly: Octet (BLI), global 1:1 binding model.
Chain of human PD-1 (human) (Q15116 25-170 limits assumed): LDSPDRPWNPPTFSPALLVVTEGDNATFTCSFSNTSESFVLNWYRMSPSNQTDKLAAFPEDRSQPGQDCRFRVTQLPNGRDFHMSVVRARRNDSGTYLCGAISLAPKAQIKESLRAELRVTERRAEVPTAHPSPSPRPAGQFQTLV
The target of experiment [3] is human PD-1 expressed on cells (human) (UniProt Q15116). Briefly: flow cytometry; blocking of 1 µg/mL PD-L1-mFc-Alexa647 binding to HEK 293T cells expressing PD-1 and ICOS. (In general: In flow cytometry, cells or beads pass a laser one at a time.)
Chain of human PD-1 expressed on cells (human) (Q15116 25-288 limits assumed): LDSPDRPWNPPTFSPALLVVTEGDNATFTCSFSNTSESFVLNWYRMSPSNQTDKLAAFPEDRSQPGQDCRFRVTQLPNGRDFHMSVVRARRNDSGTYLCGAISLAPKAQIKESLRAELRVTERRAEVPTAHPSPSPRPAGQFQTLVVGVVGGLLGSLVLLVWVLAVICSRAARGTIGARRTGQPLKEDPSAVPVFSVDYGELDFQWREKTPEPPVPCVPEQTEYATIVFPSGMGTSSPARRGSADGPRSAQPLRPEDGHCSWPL
The target in experiment [4] is human ICOS expressed on cells (human) (UniProt Q9Y6W8). The experiment is described as follows: flow cytometry; blocking of 0.5 µg/mL ICOSL-mFc-Alex647 binding to HEK 293T cells expressing PD-1 and ICOS.
Chain of human ICOS expressed on cells (human) (Q9Y6W8 21-199 limits assumed): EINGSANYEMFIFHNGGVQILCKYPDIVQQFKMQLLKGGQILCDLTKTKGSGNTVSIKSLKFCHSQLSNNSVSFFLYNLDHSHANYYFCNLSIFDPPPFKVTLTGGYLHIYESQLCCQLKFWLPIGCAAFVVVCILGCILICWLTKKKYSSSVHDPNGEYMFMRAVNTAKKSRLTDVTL
The target of experiment [5] is human PD-1 expressed on cells (human) (UniProt Q15116). Briefly: flow cytometry; blocking of 0.1 µg/mL soluble PD-L2 (mFc-Alexa647) binding to HEK 293T cells expressing PD-1 and ICOS.

Chain of cynomolgus ICOS (Macaca fascicularis (cynomolgus)) (Q9Y6W8 21-140 H101R limits assumed): as the sequence (Q9Y6W8 21-140 limits assumed) above, with H81R counted along it
Chain of cynomolgus PD-1 (Macaca fascicularis (cynomolgus)) (Q15116 other isoform, or with tags, fused parts or gaps limits assumed): as the sequence (Q15116 25-170 limits assumed) above, with D2E, P10A, V19L, T35A, Q75R, T144A counted along it

Turning to XmAb23104 (bispecific antibody), the Kd (usually the constant that tells how readily two partners part at equilibrium) in experiment [1] is 2.6 nM; in experiment [2] it was 5.8 nM; in the experiment with huICOS it was 2.9 nM; with human PD-1 (human), 2.8 nM. The EC90 (in general, the point of the concentration-response curve where the effect stands at 90%) in experiment [3] was determined as 7.1 mg/L; in experiment [4], 0.6 mg/L; in experiment [5], 5.3 mg/L. Also, the EC10 (as a rule, the concentration needed for an effect of 10%) was 0.02 mg/L in experiment [4] and 0.003 mg/L in experiment [5].
